Measured values reported in publication PMC11259713, “Splicing factor hnRNPA1 regulates alternative splicing of LOXL2 to enhance the production of LOXL2Δ13”.

Experiments:
Conditions in all cases: protein: recombinant; tags: His (pET-32a vector)
hnRNPA1-His (hnRNPA1A) [1] = molecular target: T1, hnRNPA1-His (hnRNPA1A) (UniProt P09651-2 1-320); assay: BLI; RNA on streptavidin probe; lower KD than oligo2 but less protein bound; value only in figure; BLI: PBS, 0.002% Tween-20, 0.02% BSA, temperature not stated; pull-down: lysate in 150 mM KCl, 0.5 mM DTT, 0.5% NP-40, 25 mM Tris-HCl pH 7.5, 4 C overnight
hnRNPA1-His (hnRNPA1A) [2] = molecular target: T1, hnRNPA1-His (hnRNPA1A); assay: BLI; protein on Ni-NTA probe; KD only in figure; BLI: PBS, 0.002% Tween-20, 0.02% BSA, temperature not stated; pull-down: lysate in 150 mM KCl, 0.5 mM DTT, 0.5% NP-40, 25 mM Tris-HCl pH 7.5, 4 C overnight
S91A/S95A-His = S91A/S95A-His (UniProt P09651-2 1-320, S91A;S95A); assay: BLI; protein on Ni-NTA probe; affinity and amount higher than WT; KD only in figure; BLI: PBS, 0.002% Tween-20, 0.02% BSA, temperature not stated; pull-down: lysate in 150 mM KCl, 0.5 mM DTT, 0.5% NP-40, 25 mM Tris-HCl pH 7.5, 4 C overnight
S91D/S95D-His = S91D/S95D-His (UniProt P09651-2 1-320, S91D;S95D); assay: BLI; similar or stronger affinity than WT but reduced binding amount; KD only in figure; BLI: PBS, 0.002% Tween-20, 0.02% BSA, temperature not stated; pull-down: lysate in 150 mM KCl, 0.5 mM DTT, 0.5% NP-40, 25 mM Tris-HCl pH 7.5, 4 C overnight
hnRNPA1-His (hnRNPA1A) [3] = molecular target: T1, hnRNPA1-His (hnRNPA1A); assay: pull-down; purified protein; BLI: PBS, 0.002% Tween-20, 0.02% BSA, temperature not stated; pull-down: lysate in 150 mM KCl, 0.5 mM DTT, 0.5% NP-40, 25 mM Tris-HCl pH 7.5, 4 C overnight

T1 sequence (P09651 other isoform, or with tags, fused parts or gaps): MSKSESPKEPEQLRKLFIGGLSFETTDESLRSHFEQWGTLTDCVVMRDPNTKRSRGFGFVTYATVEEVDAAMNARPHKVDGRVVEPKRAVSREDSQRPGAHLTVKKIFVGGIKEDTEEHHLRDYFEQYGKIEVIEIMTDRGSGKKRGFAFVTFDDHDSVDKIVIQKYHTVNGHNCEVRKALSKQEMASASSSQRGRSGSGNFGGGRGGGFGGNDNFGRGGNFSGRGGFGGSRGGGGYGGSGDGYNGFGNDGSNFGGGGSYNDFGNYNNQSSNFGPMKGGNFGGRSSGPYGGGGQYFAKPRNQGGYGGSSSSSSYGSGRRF
Chain of S91A/S95A-His (P09651 other isoform, or with tags, fused parts or gaps S91A;S95A | S91A S95A S91A S95A): as the sequence (P09651 other isoform, or with tags, fused parts or gaps) above, with S91A, S95A counted along it
Chain of S91D/S95D-His (P09651 other isoform, or with tags, fused parts or gaps S91D;S95D | S91D S95D S91D S95D): as the sequence (P09651 other isoform, or with tags, fused parts or gaps) above, with S91D, S95D counted along it

ACAACUGCCACACCGGUAAGGCCAGGCCGC (ssRNA) [oligo2-U13C+A14C]: binds (hnRNPA1-His (hnRNPA1A) [1]).

ACAACUGCCACAUAGGUAAGGCCAGGCCGC (ssRNA) [oligo2]: binds (hnRNPA1-His (hnRNPA1A) [2]); binds (S91A/S95A-His); binds (S91D/S95D-His).

AGCAGCCUCCUCUGCCCUGCUUCUCCCUAGGUUGUU (ssRNA) [oligo1]: binds (hnRNPA1-His (hnRNPA1A) [3]).
